Source: patent publication US20240084023A1 (NGM BIOPHARMACEUTICALS, published 2024)

What was measured:
[1] = molecular target: T1, GCGR extracellular domain alanine mutant L85A (human, UniProt P47871 26-136, limits assumed); assay: flow cytometry on transfected 293XP cells
T1 construct: expressed in 293XP cells
T1 chain: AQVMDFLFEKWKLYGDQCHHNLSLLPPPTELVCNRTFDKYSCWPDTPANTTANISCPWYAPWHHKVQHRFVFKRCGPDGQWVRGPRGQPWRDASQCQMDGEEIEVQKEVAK
Experimental: (§1) To assist in gathering information on the GCGR epitope that the 6B5 binning group bound to, “alanine scanning mutagenesis” was undertaken. These alanine scanning mutagenesis platform is a technique used for mapping both linear and conformational antigen epitopes by evaluating the effects of point mutations across a target protein. Single residues in a target protein are replaced by alanine one at a time to construct a mutant library. Each variant is assayed for its ability to bind to an antibody of interest. […] Amino acids across the extracellular domain of GCGR were mutated to alanine and the anti-GCGR antibody Hz6B5 was tested for binding to the alanine mutants.
(§2) The wild-type GCGR extracellular domain and the alanine mutants were each transfected into 293XP cells and incubated for 24 hours. Antibody Hz6B5 was incubated with the transfected cells for 30 minutes at 4° C. After washing with PBS/1% BSA/0.1% azide, the cells were incubated with a labeled anti-mouse Fc antibody (Jackson Immunoresearch) for 30 minutes at 4° C. After washing with PBS/1% BSA/0.1% azide, the cells were analyzed using a flow cytometer BD (FACSCalibur instrument) and cytometric analytical software (FlowJo). A serum sample from a mouse immunized with human GCGR was used as positive control to confirm expression of the alanine mutants.

[2] = molecular target: T2, GCGR extracellular domain alanine mutant R108A (human, UniProt P47871 26-136, limits assumed); assay: flow cytometry on transfected 293XP cells
T2 construct: expressed in 293XP cells
T2 chain: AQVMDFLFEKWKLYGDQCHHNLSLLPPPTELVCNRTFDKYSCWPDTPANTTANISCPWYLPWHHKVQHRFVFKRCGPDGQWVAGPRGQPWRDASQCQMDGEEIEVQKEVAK
Experimental: as §1, §2

% positive cells [1]: 11.7% | % positive cells [2]: 87%
B1: anti-GCGR antibody Hz6B5 (antibody, V domains shown)
VH: QVQLVQSGAEVKKPGSSVKVSCKASGFTFTNHWLGWVRQAPGQGLEWIGDIYPGGYYINYNEKFKGRVTITADESTSTAYMELSSLRSEDTAVYYCARHTNYGSDYWGQGTTVTVSS
VL: DVVMTQSPLSLPVTLGQPASISCRSSQSIVDSYGNTFLEWYQQRPGQSPRLLIYKVSNRLSGVPDRFSGSGSGTDFTLKISRVEAEDVGVYYCFQGSHVPWTFGQGTKLEIK
notes: Humanized 6B5
